{
  "source": "patent US9599605",
  "about": "(BOSTON MEDICAL CENTER, dated 2017)",
  "molecules": {"B1": {"name": "C-terminally SNAP-tagged N-terminally truncated human PLA2g6(L)^179-806 (enzyme)", "chain": "MDVTDYKGETVFHYAVQGDNSQVLQLLGRNAVAGLNQVNNQGLTPLHLACQLGKQEMVRVLLLCNARCNIMGPNGYPIHSAMKFSQKGCAEMIISMDSSQIHSKDPRYGASPLHWAKNAEMARMLLKRGCNVNSTSSAGNTALHVAVMRNRFDCAIVLLTHGANADARGEHGNTPLHLAMSKDNVEMIKALIVFGAEVDTPNDFGETPTFLASKIGRLVTRKAILTLLRTVGAEYCFPPIHGVPAEQGSAAPHHPFSLERAQPPPISLNNLELQDLMHISRARKPAFILGSMRDEKRTHDHLLCLDGGGVKGLIIIQLLIAIEKASGVATKDLFDWVAGTSTGGILALAILHSKSMAYMRGMYFRMKDEVFRGSRPYESGPLEEFLKREFGEHTKMTDVRKPKVMLTGTLSDRQPAELHLFRNYDAPETVREPRFNQNVNLRPPAQPSDQLVWRAARSSGAAPTYFRPNGRFLDGGLLANNPTLDAMTEIHEYNQDLIRKGQANKVKKLSIVVSLGTGRSPQVPVTCVDVFRPSNPWELAKTVFGAKELGKMVVDCCTDPDGRAVDRARAWCEMVGIQYFRLNPQLGTDIMLDEVSDTVLVNALWETEVYIYEHREEFQKLIQLLLSP", "modifications": "covalently immobilized on SNAP Capture Resin through the SNAP tag ; Covalently immobilised on SNAP Capture Resin through the C-terminal SNAP tag, which is not in the letters", "notes": "Mimics the N-terminally truncated protein expected in KO^Ex2 mice; not shown: C-terminal SNAP tag and the vector linker of pSNAP-tag(m) (New England Biolabs)"}},
  "key": {"[1]": {"biological_target": "Endogenous mouse STIM1 (mouse) (UniProt P70302)", "sequence (P70302 23-685 limits assumed)": "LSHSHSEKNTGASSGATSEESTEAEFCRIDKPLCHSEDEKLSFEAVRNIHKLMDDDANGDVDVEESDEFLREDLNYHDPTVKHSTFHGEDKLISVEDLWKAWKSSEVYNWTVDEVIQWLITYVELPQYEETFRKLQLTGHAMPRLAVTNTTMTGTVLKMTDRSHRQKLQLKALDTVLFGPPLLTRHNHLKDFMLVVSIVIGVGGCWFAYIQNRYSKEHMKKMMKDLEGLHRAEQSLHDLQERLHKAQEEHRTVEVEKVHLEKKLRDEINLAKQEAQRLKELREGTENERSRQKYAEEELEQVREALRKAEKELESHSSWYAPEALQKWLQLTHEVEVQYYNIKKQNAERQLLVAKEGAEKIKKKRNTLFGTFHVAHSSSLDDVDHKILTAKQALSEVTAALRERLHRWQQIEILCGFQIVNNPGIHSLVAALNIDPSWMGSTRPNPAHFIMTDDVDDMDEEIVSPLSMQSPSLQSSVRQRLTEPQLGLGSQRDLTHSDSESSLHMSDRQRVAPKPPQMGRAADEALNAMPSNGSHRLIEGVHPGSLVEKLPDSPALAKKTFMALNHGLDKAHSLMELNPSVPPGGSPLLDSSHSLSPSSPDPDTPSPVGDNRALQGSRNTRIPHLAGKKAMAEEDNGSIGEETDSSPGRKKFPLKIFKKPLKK", "experiment": "cell-based or functional assay"}, "[2]": {"biological_target": "T1, Endogenous STIM1 from extracts of Jurkat T lymphocytes (human, UniProt Q13586 23-685)", "T1 construct": "Prey protein in a cell lysate, detected by Western blot", "T1 sequence (Q13586 23-685 limits assumed)": "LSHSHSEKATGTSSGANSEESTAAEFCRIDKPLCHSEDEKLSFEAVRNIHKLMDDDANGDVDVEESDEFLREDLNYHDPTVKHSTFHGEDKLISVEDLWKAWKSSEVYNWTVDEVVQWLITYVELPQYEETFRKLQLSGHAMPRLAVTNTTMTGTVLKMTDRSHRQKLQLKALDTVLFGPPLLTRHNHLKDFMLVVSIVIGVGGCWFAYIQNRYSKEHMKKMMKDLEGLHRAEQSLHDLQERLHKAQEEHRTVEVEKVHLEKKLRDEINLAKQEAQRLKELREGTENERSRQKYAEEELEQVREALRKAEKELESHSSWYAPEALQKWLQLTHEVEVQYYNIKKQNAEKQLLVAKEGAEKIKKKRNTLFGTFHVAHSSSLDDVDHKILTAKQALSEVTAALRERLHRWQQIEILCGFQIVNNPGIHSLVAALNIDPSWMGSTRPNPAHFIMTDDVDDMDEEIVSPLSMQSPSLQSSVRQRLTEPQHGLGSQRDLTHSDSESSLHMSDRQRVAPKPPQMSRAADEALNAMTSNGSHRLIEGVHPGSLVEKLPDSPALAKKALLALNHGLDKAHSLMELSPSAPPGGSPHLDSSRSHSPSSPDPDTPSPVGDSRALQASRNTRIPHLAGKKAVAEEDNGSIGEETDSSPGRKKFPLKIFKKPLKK", "experiment": "pull-down on SNAP-immobilized bait, Western blot", "method": "(§1) A: with full-sized original images of immunoblots (B and C).\n(§2) The cells were harvested 48 h after transfection, lysed on ice in lysis buffer (25 mM Tris-HCl, pH 7.5, 150 mM NaCl, 0.5% NP-40, 5% glycerol, 2 mM DTT, 1×HALT Protease inhibitors cocktail (Pierce), 1 mM PMSF) and the extracts were cleared by centrifugation for 15 min at 16,000 g at 4° C. Each SNAP-tagged protein was covalently immobilized by incubating ~800 µL of the extract with 25 µL bed volume of SNAP Capture Resin (New England Biolabs), equilibrated with Resin Wash Buffer (RWB; 25 mM Tris-HCl, pH 7.5, 150 mM NaCl, 5% glycerol), for 16 h at 6° C. Control sample of each extract was incubated under the same conditions in the absence of the resin. Following immobilization, the resin was collected in the mini spin column (Pierce), washed 5 times on ice with 600 µL of RWB, combined with the prey protein extract, and incubated with orbital mixing at ~600-800 rpm for 6 h at 4° C."}, "[3]": {"biological_target": "T2, Overexpressed ^YFPSTIM1 from extracts of FreeStyle 293-F cells (UniProt Q13586 23-685)", "T2 construct": "not shown: YFP of the YFPSTIM1 construct (gift from Dr. T. Meyer)", "T2 sequence (Q13586 23-685)": "as the sequence (Q13586 23-685 limits assumed) above", "experiment": "pull-down on SNAP-immobilized bait, Western blot", "method": "as §1, §2"}},
  "data": [
    {"molecule": "N-terminally truncated endogenous mouse PLA2g6(L) of KO^Ex2 mice (from UniProt P97819 179-807) (enzyme)", "values": [
      {"measurement": "peak of Ca^2+ release caused by ionomycin in MEFs from KO^Ex2 mice compared to WT", "setting": "[1]", "result": 60, "unit": "%"}
    ]},
    {"molecule": "B1", "values": [
      {"measurement": "binding result", "setting": "[2]", "result": "no binding"},
      {"measurement": "binding result", "setting": "[3]", "result": "no binding"}
    ]}
  ]
}
